From paper PMC9257651 come the findings set out here.

In assay [1] the target is Full-length ClpP2 with a C-terminal Strep-tag II (tetradecamer, ClpP2_(14)) (L. monocytogenes). Kind of assay: SEC + other: intact protein mass spectrometry.
For assay [2], the target named is ClpP1 co-expressed with ClpP2 in E. coli (L. monocytogenes). The assay can be described thus: SEC. (In general: Size exclusion chromatography separates by hydrodynamic size, large species first.)
Assay [3] deals with ClpP2 co-expressed with ClpP1 in E. coli (L. monocytogenes). Kind of assay: SEC.
Assay [4] has as its target C-terminally myc-tagged ClpP2 (ClpP2-2×myc) (L. monocytogenes (endogenous gene in L. monocytogenes EGD-e)). The assay can be described thus: affinity purification with mass spectrometry.

Regarding “ClpP1 with a C-terminal Strep-tag II (heptamer, ClpP1_(7)) (enzyme)”, in assay [1], the percent ClpP1 in the tetradecamer peak (intact protein MS) lay within 47 to 49%.

The stoichiometry N is the number of molecules, sites or subunits per partner or assembly. Turning to “ClpP1 co-expressed with ClpP2 in E. coli (enzyme)”, the stoichiometry N in assay [2] turned out to be 7.

“ClpP2 co-expressed with ClpP1 in E. coli (enzyme)” gave a stoichiometry N in assay [3] of 14.

Consider “Full-length ClpP2 with a C-terminal Strep-tag II (tetradecamer, ClpP2_(14)) (enzyme)”, for which the stoichiometry N in assay [1] was 14.

For “ClpP1, endogenous in L. monocytogenes (enzyme)”, the fold enrichment at 42 °C against 20 °C in assay [4] amounted to 6 fold.
